In paper PMC10397247:

How the values were obtained:
O10 = biological target: T1, O10; assay: two-hybrid library CC0; conditions: mean of both orientations;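 also: natural log of median RNA to DNA barcode read ratio; higher means stronger binding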
T1 chain: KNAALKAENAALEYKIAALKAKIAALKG

O11 = biological target: T2, O11; assay: two-hybrid library CC0; conditions: mean of both orientations;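 also: natural log of median RNA to DNA barcode read ratio; higher means stronger binding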
T2 chain: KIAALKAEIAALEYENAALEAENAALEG

O12 = biological target: T3, O12; assay: two-hybrid library CC0; conditions: mean of both orientations;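 also: natural log of median RNA to DNA barcode read ratio; higher means stronger binding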
T3 chain: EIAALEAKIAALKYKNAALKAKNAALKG

O13 = biological target: T4, O13; assay: two-hybrid library CC0; conditions: mean of both orientations;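 also: natural log of median RNA to DNA barcode read ratio; higher means stronger binding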
T4 chain: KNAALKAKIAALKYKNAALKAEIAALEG

O14 = biological target: T5, O14; assay: two-hybrid library CC0; conditions: mean of both orientations;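 also: natural log of median RNA to DNA barcode read ratio; higher means stronger binding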
T5 chain: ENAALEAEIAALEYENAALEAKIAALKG

O15 = biological target: T6, O15; assay: two-hybrid library CC0; conditions: mean of both orientations;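 also: natural log of median RNA to DNA barcode read ratio; higher means stronger binding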
T6 chain: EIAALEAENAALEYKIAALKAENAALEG

O16 = biological target: T7, O16; assay: two-hybrid library CC0; conditions: mean of both orientations
T7 chain: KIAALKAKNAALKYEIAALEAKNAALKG

O1 = biological target: T8, O1; assay: two-hybrid library CC0; conditions: mean of both orientations
T8 chain: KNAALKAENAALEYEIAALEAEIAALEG

O2 = biological target: T9, O2; assay: two-hybrid library CC0; conditions: mean of both orientations
T9 chain: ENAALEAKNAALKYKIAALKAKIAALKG

O3 = biological target: T10, O3; assay: two-hybrid library CC0; conditions: mean of both orientations
T10 chain: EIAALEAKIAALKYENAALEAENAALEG

O4 = biological target: T11, O4; assay: two-hybrid library CC0; conditions: mean of both orientations
T11 chain: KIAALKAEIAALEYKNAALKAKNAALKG

O5 = biological target: T12, O5; assay: two-hybrid library CC0; conditions: mean of both orientations
T12 chain: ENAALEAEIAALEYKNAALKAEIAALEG

O6 = biological target: T13, O6; assay: two-hybrid library CC0; conditions: mean of both orientations
T13 chain: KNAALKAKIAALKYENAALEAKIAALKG

O7 = biological target: T14, O7; assay: two-hybrid library CC0; conditions: mean of both orientations
T14 chain: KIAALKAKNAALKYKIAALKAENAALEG

O8 = biological target: T15, O8; assay: two-hybrid library CC0; conditions: mean of both orientations
T15 chain: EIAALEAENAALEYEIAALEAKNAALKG

O9 = biological target: T16, O9; assay: two-hybrid library CC0; conditions: mean of both orientations
T16 chain: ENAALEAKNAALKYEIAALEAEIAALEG

Core_NNIN-es_KEEK = biological target: T17, Core_NNIN-es_KEEK; assay: two-hybrid library CCmax; conditions: mean of both orientations
T17 chain: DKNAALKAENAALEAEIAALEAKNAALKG

P2-AA-1HGe-A = biological target: T18, P2-AA-1HGe-A; assay: two-hybrid library CCmax; conditions: mean of both orientations
T18 chain: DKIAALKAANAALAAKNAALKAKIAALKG

P2-AA-1HGe-D = biological target: T19, P2-AA-1HGe-D; assay: two-hybrid library CCmax; conditions: mean of both orientations
T19 chain: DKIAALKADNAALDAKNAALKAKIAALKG

P2-AA-1HGe-M = biological target: T20, P2-AA-1HGe-M; assay: two-hybrid library CCmax; conditions: mean of both orientations
T20 chain: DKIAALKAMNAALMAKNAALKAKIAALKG

P2-AA-1HGe-Q = biological target: T21, P2-AA-1HGe-Q; assay: two-hybrid library CCmax; conditions: mean of both orientations
T21 chain: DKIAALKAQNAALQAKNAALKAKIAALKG

P2-AA-1HGe-S = biological target: T22, P2-AA-1HGe-S; assay: two-hybrid library CCmax; conditions: mean of both orientations
T22 chain: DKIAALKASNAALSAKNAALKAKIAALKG

P2-AA-1HGe-T = biological target: T23, P2-AA-1HGe-T; assay: two-hybrid library CCmax; conditions: mean of both orientations
T23 chain: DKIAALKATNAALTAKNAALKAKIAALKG

P2-AA = biological target: T24, P2-AA; assay: two-hybrid library CCmax; conditions: mean of both orientations
T24 chain: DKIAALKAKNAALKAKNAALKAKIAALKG

Core_NIIN-es_KEEK = biological target: T25, Core_NIIN-es_KEEK; assay: two-hybrid library CCmax; conditions: mean of both orientations
T25 chain: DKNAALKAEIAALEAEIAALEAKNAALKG

Core_NNNI-es_KEEE = biological target: T26, Core_NNNI-es_KEEE; assay: two-hybrid library CCmax; conditions: mean of both orientations
T26 chain: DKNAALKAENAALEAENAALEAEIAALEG

P6SC2R [1] = biological target: T27, P6SC2R; assay: two-hybrid library CCNG1
T27 chain: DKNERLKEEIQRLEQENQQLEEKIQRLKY

P6SC2R [2] = biological target: T27, P6SC2R; assay: two-hybrid library CCmax
Core_NINN-es_KEEK = biological target: T28, Core_NINN-es_KEEK; assay: two-hybrid library CCmax; conditions: mean of both orientations
T28 chain: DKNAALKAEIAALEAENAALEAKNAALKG

KNAALKAENAALEYEIAALEAEIAALEG [O1] was tested, and the interaction score (O10) was -0.97, the interaction score (O11) was -2.7 and the interaction score (O12) was -2.64. It also gave an interaction score (O13) of -2.57, an interaction score (O14) of -2.71 and an interaction score (O15) of -2.7. It also gave an interaction score (O16) of -2.65, an interaction score (O1) of -2.74 and an interaction score (O2) of 1.37. It also gave an interaction score (O3) of -2.76, an interaction score (O4) of -2.68 and an interaction score (O5) of -2.77. It also gave an interaction score (O6) of -2.76, an interaction score (O7) of -2.69 and an interaction score (O8) of -2.67. For the same binder, the interaction score (O9) was -2.49.

For DENAALEAKNAALKAKIAALKAENAALEG [Core_NNIN-es_EKKE], the interaction score (Core_NNIN-es_KEEK) was 1.39.

For DEIAALEAANAALAAENAALEAEIAALEG [P1-AA-1HGe-A], the interaction score (P2-AA-1HGe-A) was 1.85, the interaction score (P2-AA-1HGe-D) was 1.82 and the interaction score (P2-AA-1HGe-M) was 2.12. For the same binder, the interaction score (P2-AA-1HGe-Q) was 1.88, the interaction score (P2-AA-1HGe-S) was 2.24 and the interaction score (P2-AA-1HGe-T) was 1.54. For the same binder, the interaction score (P2-AA) was 1.57.

In the case of DENAALEAKIAALKAKIAALKAENAALEG [Core_NIIN-es_EKKE], the interaction score (Core_NIIN-es_KEEK) is reported as 2.22.

With DENAALEAKNAALKAKNAALKAKIAALKG [Core_NNNI-es_EKKK] the interaction score (Core_NNNI-es_KEEE) was 1.91.

With DENSQLEEKISQLKQKNSRLKEEIQRLEY [P5SC1Q] the interaction score (P6SC2R [1]) was 1.2 and the interaction score (P6SC2R [2]) was 1.06.

DENAALEAKIAALKAKNAALKAENAALEG [Core_NINN-es_EKKE] gave an interaction score (Core_NINN-es_KEEK) of 1.86.
